Several values for one entry are separate records, joined by “and”; a condition that tells them apart may be missing. Equal entries are not always repeated. Where two headings read alike, the source gives them in different places.
B1: HCoV‐229E nucleocapsid (N) protein C‐terminal domain truncation N245–382 (domain or fragment)
chain: QKPRWKRQPNDDVTSNVTQCFGPRDLDHNFGSAGVVANGVKAKGYPQFAELVPSTAAMLFDSHIVSKESGNTVVLTFTTRVTVPKDHPHLGKFLEELNAFTREMQQHPLLNPSALEFNPSQTSPATAEPVRDEVSIET
B2: HCoV‐229E nucleocapsid (N) protein C‐terminal domain truncation N245–376 (domain or fragment)
chain: QKPRWKRQPNDDVTSNVTQCFGPRDLDHNFGSAGVVANGVKAKGYPQFAELVPSTAAMLFDSHIVSKESGNTVVLTFTTRVTVPKDHPHLGKFLEELNAFTREMQQHPLLNPSALEFNPSQTSPATAEPVRD
B3: HCoV‐229E nucleocapsid (N) protein C‐terminal domain truncation N245–370 (domain or fragment)
chain: QKPRWKRQPNDDVTSNVTQCFGPRDLDHNFGSAGVVANGVKAKGYPQFAELVPSTAAMLFDSHIVSKESGNTVVLTFTTRVTVPKDHPHLGKFLEELNAFTREMQQHPLLNPSALEFNPSQTSPAT
B4: HCoV‐229E nucleocapsid (N) protein C‐terminal domain truncation N245–350 (domain or fragment)
chain: QKPRWKRQPNDDVTSNVTQCFGPRDLDHNFGSAGVVANGVKAKGYPQFAELVPSTAAMLFDSHIVSKESGNTVVLTFTTRVTVPKDHPHLGKFLEELNAFTREMQQ
B5: N245–350: truncated C‐terminal domain of the HCoV‐229E N protein, dimeric C‐terminal structural domain (protein)
chain: B4 chain
modifications: left off: His6, C-terminal, state not stated
B6: HCoV‐229E nucleocapsid (N) protein C‐terminal domain N245–389 (domain or fragment)
chain: QKPRWKRQPNDDVTSNVTQCFGPRDLDHNFGSAGVVANGVKAKGYPQFAELVPSTAAMLFDSHIVSKESGNTVVLTFTTRVTVPKDHPHLGKFLEELNAFTREMQQHPLLNPSALEFNPSQTSPATAEPVRDEVSIETDIIDEVN

Experiments:
AUC [1] = molecular target: the molecule itself; assay: AUC
[2] = Secondary structural content by CD spectroscopy; format: physicochemical; conditions: 25 °C, protein 5 μM, 50 mM Tris–HCl pH 7.5, 150 mM NaCl, 0.1% β‐mercaptoethanol, CDSSTR
[3] = format: physicochemical; conditions: CD at 220 nm, protein 7 μM, 50 mM Tris–HCl pH 7.5, 150 mM NaCl, 0.1% β‐mercaptoethanol
AUC [4] = molecular target: the molecule itself; assay: AUC; remark: listed apart in the source
AUC [5] = molecular target: the molecule itself; assay: AUC; remark: listed apart in the source

| Molecule | Kd (AUC [1]) [µM] | stoichiometry N (AUC [1]) | other results |
| --- | --- | --- | --- |
| B1 | 3.83 | – | – |
| B2 | 159 | 4 and 2 | – |
| B3 | 177 | 2 and 4 | – |
| B4 | 256 | 2 and 4 | – |
| B5 | – | – | Disordered (random coil) content [2]: ~15%; Sheet content [2]: ~22%; Turn content [2]: ~12%; melting temperature (Tm) [3]: 35.5 °C |
| B6 | 3.5 | – | Kd (AUC [4]): ~9.7 µM; Kd (AUC [5]): ~6.1 µM |
